Experimental data from article PMC12513983, “Backbone and sidechain ^1H, ^15N and ^13C resonance assignments of a multidrug efflux membrane protein using solution and solid-state NMR” (Biomolecular Nmr Assignments, 2025).

Molecular target: the molecule itself
Experiment: solid-state NMR (magic-angle spinning, 13C-detected resonance assignment); S64V-EmrE in POPC proteoliposomes, 25:1 lipid/EmrE monomer, pH 5.8; 2D NCA shows separate peaks for chain A and chain B

B1: S64V-EmrE (natural protein, E. coli, UniProt P23895 1-110, looked up)
chain: MNPYIYLGGAILAEVIGTTLMKFSEGFTRLWPSVGTIICYCASFWLLAQTLAYIPTGIAYAIWVGVGIVLISLLSWGFFGQRLDLPAIIGMMLICAGVLIINLLSRSTPH
notes: also called EmrE mutant S64V; EmrE S64V
binding result: binds
